Results reported in article PMC5007355.

Key:
[1] = test system: Fur (ferric uptake regulator) (Helicobacter pylori (strain G27?)); experiment: DNase I footprinting (full protection); conditions: apo (150 uM 2,2'-dipyridyl); site fOPII; Footprinting: 15 fmol probe in 50 ul, 300 ng salmon sperm DNA, room temperature, 150 uM Fe2+ or dipyridyl; competitive buffer 20 mM HEPES pH 7.85, 50 mM KCl, 0.
[2] = test system: Fur (ferric uptake regulator) (Helicobacter pylori (strain G27?)); experiment: DNase I footprinting (protection); conditions: Footprinting: 15 fmol probe in 50 ul, 300 ng salmon sperm DNA, room temperature, 150 uM Fe2+ or dipyridyl, competitive buffer 20 mM HEPES pH 7.85, 50 mM KCl, 0.

Q: For ParsR wild-type footprinting probe, which binding signal [1] is on record?
A: 30 nM

Q: What about the binding signal ([2]; apo (150 uM 2,2'-dipyridyl), site fOPI) of the same substance?
A: 75 nM

Q: What about the binding signal ([2]; holo (150 uM Fe2+), site fOPI) of the same substance?
A: 12 nM

Q: And the binding signal ([2]; holo (150 uM Fe2+), site fOPIII (low affinity))?
A: 125 nM
